The target of data set [1] is T1, Recombinant Ce C19L1 full-length protein, untagged (C. elegans, UniProt O16216 1-533).
T1 sequence: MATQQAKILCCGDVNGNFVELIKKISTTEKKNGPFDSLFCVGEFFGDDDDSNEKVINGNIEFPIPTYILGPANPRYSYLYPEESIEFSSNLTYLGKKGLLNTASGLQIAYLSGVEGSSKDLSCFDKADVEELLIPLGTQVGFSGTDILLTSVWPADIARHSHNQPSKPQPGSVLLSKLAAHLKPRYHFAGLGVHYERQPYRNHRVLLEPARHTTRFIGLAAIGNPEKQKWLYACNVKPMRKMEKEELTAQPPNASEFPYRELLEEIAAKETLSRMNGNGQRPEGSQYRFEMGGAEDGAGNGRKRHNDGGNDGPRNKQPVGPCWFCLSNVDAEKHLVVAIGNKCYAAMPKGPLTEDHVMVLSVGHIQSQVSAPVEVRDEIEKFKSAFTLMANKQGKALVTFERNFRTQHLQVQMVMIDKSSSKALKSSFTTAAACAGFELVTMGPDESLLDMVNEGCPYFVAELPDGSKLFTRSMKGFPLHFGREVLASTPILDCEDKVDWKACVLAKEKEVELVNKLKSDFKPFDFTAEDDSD
Put plainly: pull-down.

Data set [2] deals with Recombinant Ce DHX15 (10x-His-FLAG-3C-ceDHX15) (C. elegans, UniProt Q20875 1-739). The data set can be described thus: pull-down.
Recombinant Ce DHX15 (10x-His-FLAG-3C-ceDHX15), sequence (Q20875 whole entry): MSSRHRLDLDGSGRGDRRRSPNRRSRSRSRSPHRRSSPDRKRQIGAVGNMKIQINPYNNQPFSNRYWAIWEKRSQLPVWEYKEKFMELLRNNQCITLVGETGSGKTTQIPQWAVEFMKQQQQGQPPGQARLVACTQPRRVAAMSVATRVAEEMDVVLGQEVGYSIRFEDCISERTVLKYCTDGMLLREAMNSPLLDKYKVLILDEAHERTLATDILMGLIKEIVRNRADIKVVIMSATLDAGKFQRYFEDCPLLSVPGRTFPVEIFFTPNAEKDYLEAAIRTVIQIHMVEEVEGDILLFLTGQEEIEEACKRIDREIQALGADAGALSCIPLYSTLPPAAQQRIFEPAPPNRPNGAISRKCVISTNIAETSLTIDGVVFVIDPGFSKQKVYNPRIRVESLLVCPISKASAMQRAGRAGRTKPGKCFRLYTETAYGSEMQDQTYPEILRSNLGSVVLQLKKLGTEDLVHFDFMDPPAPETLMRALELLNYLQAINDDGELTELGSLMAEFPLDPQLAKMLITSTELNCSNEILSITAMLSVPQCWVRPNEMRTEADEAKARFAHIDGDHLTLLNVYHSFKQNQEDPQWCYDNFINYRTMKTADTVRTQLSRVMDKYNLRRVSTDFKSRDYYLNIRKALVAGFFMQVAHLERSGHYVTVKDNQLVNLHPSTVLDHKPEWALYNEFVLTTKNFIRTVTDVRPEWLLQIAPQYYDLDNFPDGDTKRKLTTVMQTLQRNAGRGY
Data set [3] addresses T2, Recombinant Ce C19L1(1-277), untagged (C. elegans, UniProt O16216 1-277).
T2 sequence: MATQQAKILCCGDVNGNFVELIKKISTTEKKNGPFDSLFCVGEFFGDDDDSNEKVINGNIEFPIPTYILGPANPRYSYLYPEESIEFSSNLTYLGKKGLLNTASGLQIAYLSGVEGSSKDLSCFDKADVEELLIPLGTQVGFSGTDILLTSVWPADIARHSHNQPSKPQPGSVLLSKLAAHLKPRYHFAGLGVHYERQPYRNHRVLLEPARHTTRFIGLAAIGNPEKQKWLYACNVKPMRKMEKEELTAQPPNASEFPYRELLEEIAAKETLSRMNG
Put plainly: pull-down.

The data set “cryo-EM structure” deals with the molecule itself. Put plainly: cryo-EM structure.

With fluorescein-EDEKNKLSAKILKAEMKGDTDLVKKLKRKLESM-biotin [ceC19L2(75-106)-wildtype peptide], the binding result in data set [1] is listed as “binds”.
Regarding fluorescein-SMNKGNISFVRGAGKTVQQNTTENPDEIDLD-biotin [ceSYF1(788-818)-wildtype peptide], the binding result in data set [2] and in data set [3] was “binds” throughout.

B1: 3xFLAG-PRP19 (C. elegans, prp-19) (natural protein)
chain: MSFVCGISGELTEDPVVSQVSGHIFDRRLIVKFIAENGTDPISHGELSEDQLVSLKSGGTGSAPRNVSGTSIPSLLKMLQDEWDTVMLNSFSLRQQLQIARQELSHSLYQHDAACRVISRLSKELTAAREALSTLKPHTSAKVDDDVSIDESEDQQGLSEAILAKLEEKSKSLTAERKQRGKNLPEGLAKTEELAELKQTASHTGIHSTGTPGITALDIKGNLSLTGGIDKTVVLYDYEKEQVMQTFKGHNKKINAVVLHPDNITAISASADSHIRVWSATDSSSKAIIDVHQAPVTDISLNASGDYILSASDDSYWAFSDIRSGKSLCKVSVEPGSQIAVHSIEFHPDGLIFGTGAADAVVKIWDLKNQTVAAAFPGHTAAVRSIAFSENGYYLATGSEDGEVKLWDLRKLKNLKTFANEEKQPINSLSFDMTGTFLGIGGQKVQVLHVKSWSEVVSLSDHSGPVTGVRFGENARSLVTCSLDKSLRVFSF
The term stoichiometry N denotes a count of units in the complex or per binding partner. As to B1, the “stoichiometry N” value in the data set “cryo-EM structure” amounted to 4.

The record behind these values is publication PMC7616679 (Nature, 2024).
